We go through 1 substance from publication PMC10635571.

The target of this assay is hnRNPK (human (endogenous in HeLa)) (UniProt P61978). As to the kind of experiment: native gel or EMSA; blue native PAGE (4-13%) of the lhCLIP sample: HeLa cells UV-crosslinked, lysate immunoprecipitated with anti-hnRNPK, MNase digestion, pCp-biotin labelling, ligation, eluted from beads at 70°C for 10 min without reducing agents; blotted with anti-hnRNPK antibody. (In general: Mobility shift assays separate free from complexed probe on a gel.)

As a reminder, the stoichiometry N is the number of molecules, sites or subunits per partner or assembly. On to “hnRNPK, P61978 1-463 (natural protein; other documents disagree on this pair)”, for which the stoichiometry N is 2.
